Assay [1] deals with FIX/FIXa. Nature of the assay: Western Blot and ELISA reactivity with FIX/FIXa. Format: binding. Here is the method: Factor IX and the two activated forms of FIX, FIXaα and FIXaβ (FIX/FIXa(α,β)) were diluted in TBS (25 mM Tris HCl, 150 mM NaCl, pH 7.5) to a final concentration of 2 μg/ml. Nunc Maxisorp ELISA plates were coated with 100 μl FIX/FIXa(α,β) solution according to standard procedures (4° C., overnight) and washed several times with TBST (TBS, 0.1% (v/v) Tween 20). 50 μl hybridoma supernatant was diluted 1:1 with 50 μl TBST/2% BSA and added to the coated ELISA plate. After an incubation period of 2 h at room temperature (RT), plates were washed 4 times with TBST and incubated (2 h, RT) with 100 μl/well of a 1:25000 dilution (in TBST/1% BSA) of an anti-mouse IgG (Fc-specific) peroxidase conjugated antibody (Sigma, #A-0168). Wells were washed 5 times with TBST and finally stained with 100 μl freshly prepared staining solution (10 ml 50 mM sodium citrate, pH 5 supplemented with 100 μl OPD (60 mg OPD/ml) and 10 μl 30% H2O2). The reaction was stopped by the addition of […] H2SO4 and the optical density recorded at 492 nm and 620 nm in a Labsystems iEMS Reader MF™ microtiter plate reader employing GENESIS™ software. […]

Assay [2] has as its system FVIII deficient plasma. Briefly: aPTT based one stage clotting assay in FVIII deficient plasma. Format: biochemical, human. Particulars: for clotting time: 50 ng FIXa. The essentials: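 Test samples preincubated 4 min with FVIII-deficient plasma and aPTT reagent (DAPTTIN or Pathromtin SL), optionally with 50 ng activated FIX; clotting started with 25 mM CaCl2. Read-out is clotting time from start to clot formation, set against FVIII, buffer or scrambled-peptide controls.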

Assay [3] deals with FVIII inhibitor plasma. Briefly: aPTT based one stage clotting assay in FVIII inhibitor plasma. Conditions: inhibitor potency 400 BU/ml, 50 ng activated FIXa. Format: biochemical. As for the experimental part: […] […] […] After a 4 minute incubation, the reaction was started by the addition of 100 μl CaCl2 (25 mM). To ensure equal conditions, the experiments employing FVIII deficient plasma and FVIII inhibitor plasma were done side by side.
To assay for the procoagulant activity of peptide A1/3 in FVIII inhibitor plasma the following experiment was carried out. We performed a standard aPTT based one stage clotting assay, but instead of FVIII deficient plasma we employed FVIII inhibitor plasma.

Assay [4] deals with T1, factor IXa (Bos taurus, UniProt P00741).
T1 construct: purchased Chromogenix COATEST VIII:C/4
T1 sequence (P00741 47-192 limits assumed): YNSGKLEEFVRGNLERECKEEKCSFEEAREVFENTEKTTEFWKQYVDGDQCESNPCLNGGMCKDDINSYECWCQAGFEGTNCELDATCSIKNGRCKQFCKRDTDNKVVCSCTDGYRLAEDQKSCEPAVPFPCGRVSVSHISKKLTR
T1 sequence (P00741 228-462 limits assumed): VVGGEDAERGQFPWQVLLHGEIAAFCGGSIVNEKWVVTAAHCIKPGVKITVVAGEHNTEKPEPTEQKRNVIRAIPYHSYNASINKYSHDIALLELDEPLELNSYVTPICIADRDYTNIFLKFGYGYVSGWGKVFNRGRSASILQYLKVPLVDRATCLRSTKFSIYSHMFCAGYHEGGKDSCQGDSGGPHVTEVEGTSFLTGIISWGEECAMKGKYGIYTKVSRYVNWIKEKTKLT
Nature of the assay: Chromogenic FVIII assay (COATEST VIII:C/4) with the kit's FIXa/FX. The format is biochemical, bovine. Conditions: purified IgG (198/AC1/1 10 μg/ml) or unpurified IgM supernatant. As for the experimental part:
In order to assay the FVIII-like activity of anti-FIXa antibodies secreted by hybridoma cells, the commercially available test-kit COATEST VIII:C/4® (Chromogenix) was employed. The assay was done essentially as described by the manufacturer with the following modifications:
To allow high throughput screening, the assay was downscaled to microtiter plate format. Briefly, 25 μl aliquots of hybridoma supernatants were transferred to microtiter plate (Costar, #3598) wells and warmed to 37° C. Chromogenic substrate (S-2222), synthetic thrombin inhibitor (I-2581), factor (F) IXa and FX were reconstituted in sterile water and FIXa/FX was mixed with phospholipids according to the supplier's protocol. Per reaction, 50 μl of the phospholipid/FIXa/FX solution were combined with 25 μl CaCl2 (25 mM) and 50 μl of the substrate/inhibitor cocktail. To start the reaction, 125 μl of the premix were added to the hybridoma supernatant in the microtiter plates and incubated at 37° C. Absorbency at 405 nm and 490 nm of the samples was read at various times (30 min to 12 h) against a reagent blank (MLW, cell culture medium instead of hybridoma supernatant) in a Labsystems iEMS Reader MF™ microtiter plate reader. FVIII-like activity of the samples was calculated by comparing the absorbency of the samples against the absorbency of a diluted FVIII reference standard (IMMUNO AG #5T4AR00) using GENESIS™ software.
Several anti-FIX/FIXa antibody producing hybridoma clones were subcloned up to four times and the resulting monoclonal hybridoma cell line used to produce monoclonal antibody containing supernatant. IgG isotype antibodies derived from these supernatants were purified over affinity columns and dialyzed against TBS (see above). IgM antibodies were used as unpurified supernatant fractions. […] Absorbance at 405 nm and 490 nm of the samples was read at various times (5 min to 6 h) against a reagent blank (cell culture medium instead of hybridoma supernatant) in a Labsystems iEMS Reader MF™ microtiter plate reader using GENESIS™ software. […]

“Also recorded” adds a separate entry of the source.

B1: #8860: irrelevant monoclonal antibody, negative control (protein)
chain 1: EVQLQQSGPELVKPGASVKISCKASGYAFSSSWMNWVKQRPGQGLEWIGRIYPGNGDTNYNGKFKGKATLTADKSSSTAYMQLSSLTSVDSAVYFCADGNVYYYAMDYWGQGTSVTVSS
chain 2: QIVLTQSPASLAVSLGQRATISCRASKSVSTSGYSYMHWYQQKPGQPPKLLIYLASNLESGVPARFSGSGSGTDFTLNIHPVEEEDAATYYCQHSRELPRTFGGGTKLEIKR
For B1, the “reactivity with FIX/FIXa” value in assay [1] is given as “does not react with FIX/FIXa”.

B2: 193/AD3: anti-FIX/FIXa monoclonal antibody, IgG isotype; scFv SEQ. ID. NOs. 81 and 82 (protein)
scFv: EVKLVESGPELKKPGETVKISCKASGYIFTNYGMNWVKQAPGKGLKWMGWINTYTGEPTYADDFKGRFAFSLETSASTAYLQINNLKNEDTATYFCALYGNSPKGFAYWGQGTLVTVSAGGGGSGGRASGGGGSDIQMTQSPKFLLVSAGDRVTITCKASQSVSNDVAWYQQKPGQSPKLLMYYASNRYTGVPDRFTGSGYGTDFTFTISTVQAEDLAVYFCQQDYGSPPTFGGGTKLEIKR
modifications: scFv derived from IgG; Description of Artificial Sequence:scFv from hybridoma cell line 193/AD3
notes: anti-FIX/FIXa monoclonal antibody, IgG isotype; ID; NOs; 81 and 82
In the case of B2, the clotting time in assay [2] (0.23 μg AB) was 99.3 s; in assay [2] (0.34 μg AB), 97.1 s; in assay [2] (0.45 μg AB), 98.1 s; in assay [2] (0.9 μg AB) it was 94.4 s; in assay [2] (1.35 μg AB) it was 91.4 s; in assay [2] (1.8 μg AB) it was 93.7 s. Further, the clotting time in assay [2] (2.25 μg AB) stood at 93.1 s; in assay [2] (4.5 μg AB), 95.6 s; in assay [2] (9 μg AB), 101.6 s. In addition, the procoagulant activity result in assay [2] (one-stage clotting assay in the presence of FIXa) is reported as “procoagulant”. Also, the “reduction of the clotting time” value is on record as “clear dose-dependent reduction of the clotting time; also recorded: reduction in the coagulation time” in assay [2] (various amounts of antibody, 50 ng activated FIX) and “clear dose-dependent reduction of the clotting time” in assay [3]. Besides, the “time course of FVIII-like activity (chromogenic substrate cleavage, OD 405 nm)” value in assay [4] is listed as “give rise to chromogenic substrate cleavage; also recorded: gave rise to chromogenic substrate cleavage”.

The record behind these values is patent US7279161B2, “Factor IX/factor IXa activating antibodies and antibody derivatives” (Baxter Aktiengesellschaft, priority 1999, dated 2007).
